Details of data set [1]: method as in PMID 28721307. To be noted: cited from earlier work.
The target of data set [2] is human serum albumin (HSA) (Homo sapiens, UniProt P02768). Description: HSA binding by gradient high-performance liquid chromatography method. The data set is classed as in vitro ADME. The conditions noted are these: plasma. The protocol: The lipophilicity of ^68Ga- and ^177Lu-PSMA-I&F was determined via a modified shake-flask method as previously described ([38]). Plasma protein binding of both tracers was determined using 2 alternative methods, that is, incubation in fresh human plasma and subsequent ultrafiltration ([20]) and a previously established gradient high-performance liquid chromatography method for the quantification of human serum albumin (HSA) binding ([41],[42]).

The subject of data set [3] is PSMA-positive LNCaP cells. The data set can be described thus: Fluorescence microscopy of ligand internalization, PSMA-positive cells. The conditions noted are these: 25 nM, 60 min, 37°C. The data set is classed as cell-based. The protocol: Competitive binding experiments (IC50) were performed in analogy to a previously published protocol ([38]) using LNCaP cells and (^125I-BA)KuE as a standard radioligand. Internalization kinetics of ^68Ga-PSMA-I&F and ^177Lu-PSMA-I&F (2 nM) were investigated in dual-tracer internalization assays using PSMA-expressing LNCaP cells and (^125I-BA)KuE (0.1 nM) as an internal reference. To differentiate between membrane-bound and internalized activity, an acid wash (50 mM NaOAc in saline, pH 4.5) was performed prior to lysis of the cells (1N NaOH) and quantification of internalized activity (lysate) using a γ-counter. […] For fluorescence microscopy, PSMA-positive LNCaP and PSMA-negative PC3 cells (seeded on glass cover slips) were incubated with the respective PSMA-I&F analog (100 or 25 nM) in the absence (total binding/internalization) or presence (nonspecific binding/internalization) of 10 μM 2-PMPA at 37 °C for 5 or 60 min. […] Ligand internalization was visualized using a Keyence BZ-9000 fluorescence microscope equipped with Cy5 (620/60 nm excitation, 700/75 nm emission), DAPI-BP (370/50 nm excitation, 447/60 nm emission), and GFP-BP (472.5/30 nm excitation, 520/35 nm emission) filters.

A further data set concerns LNCaP xenografts. Description: Intraoperative / ex vivo fluorescence imaging of LNCaP xenografts. The format is in vivo, CB17 SCID mice. To be noted: 2 nmol, 1 h after injection, Dino-Lite microscope and Firefly laparoscope. The protocol: Fluorescence imaging (intraoperative/ex vivo) of LNCaP xenografts in CB17 SCID mice (1 h after injection) was performed using 2 different instrumental setups: a handheld digital microscope for Cy5 (Dino-Lite Edge AM4115T-DFRW; AnMo Electronics Corp.) and DinoCapture 2.0 software (AnMo Electronics Corp.); and a 0°Firefly laparoscope that is compatible with the surgical robotic da Vinci Si system (Intuitive Surgical Inc.), using a fluid light cable for target illumination (495 FR; KARL STORZ Endoskope GmbH&Co.KG) and a bandpass filter (Edmund Optics Inc.) to isolate the Cy5 emission. Images were captured from the unprocessed Firefly video feed. For instrumental details see supplemental data.

Details of data set [4]: method as in earlier work. The conditions noted are these: cited from earlier work.
The next data set has as its system LNCaP tumors. The conditions noted are these: in vivo; cited from earlier work.
For data set [5], the system named is tumor xenograft (PC-3 PIP). The conditions noted are these: in vivo; cited from earlier work.

Results on five molecules are retold here after PMC6354225, “Synthesis and Preclinical Characterization of the PSMA-Targeted Hybrid Tracer PSMA-I&F for Nuclear and Fluorescence Imaging of Prostate Cancer” (Journal of Nuclear Medicine, 2019).

human serum albumin (HSA), sequence (P02768 25-609): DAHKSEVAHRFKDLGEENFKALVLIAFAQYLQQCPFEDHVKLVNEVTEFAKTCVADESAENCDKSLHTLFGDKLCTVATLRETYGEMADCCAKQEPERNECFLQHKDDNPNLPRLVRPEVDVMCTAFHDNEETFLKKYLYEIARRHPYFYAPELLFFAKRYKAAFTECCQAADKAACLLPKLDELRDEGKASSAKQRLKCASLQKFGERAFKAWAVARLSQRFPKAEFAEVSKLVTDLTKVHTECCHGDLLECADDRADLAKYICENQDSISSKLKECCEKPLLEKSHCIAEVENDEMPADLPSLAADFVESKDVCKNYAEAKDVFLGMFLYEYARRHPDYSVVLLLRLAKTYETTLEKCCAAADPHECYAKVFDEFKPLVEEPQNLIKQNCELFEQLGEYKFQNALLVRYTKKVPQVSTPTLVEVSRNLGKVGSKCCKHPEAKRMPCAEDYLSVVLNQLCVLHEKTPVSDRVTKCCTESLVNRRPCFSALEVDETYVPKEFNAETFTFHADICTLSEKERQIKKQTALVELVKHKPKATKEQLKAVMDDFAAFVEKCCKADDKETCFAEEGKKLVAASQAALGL

Take `CC1(C)C(/C=C/C=C/C=C/C=C2\N(CCCCS(=O)(=O)O)c3ccc4ccccc4c3C2(C)C)=[N+](CCCCS(=O)(=O)[O-])c2ccc3ccccc3c21` [ICG, indocyanine green]: the “brightness (quantum yield)” value in data set [1] is recorded as 0.3%.

As a reminder, the fraction unbound is free concentration divided by total concentration. High values mean weak binding, low ones extensive binding. As for `C[N+]1=C(/C=C/C=C/C=C2/N(CCCCCC(=O)NCCCC[C@@H](NC(=O)CCC(C(=O)O)N3CCN(CC(=O)O)CCN(CC(=O)O)CCN(CC(=O)O)CC3)C(=O)N[C@H](Cc3ccc(O)c(I)c3)C(=O)N[C@H](Cc3ccc(O)c(I)c3)C(=O)N[C@H](CCCCNC(=O)CCCCCCC(=O)NCCCC[C@H](NC(=O)N[C@@H](CCC(=O)O)C(=O)O)C(=O)O)C(=O)O)c3ccc(S(=O)(=O)O)cc3C2(C)C)C(C)(C)c2cc(S(=O)(=O)[O-])ccc21` (stereo partly drawn) [PSMA-I&F, DOTAGA-D-Lys(Nε-Sulfo-Cy5)-D-(3-iodo)Tyr-D-(3-iodo)Tyr-D-Lys(Nε-Sub-KuE)], the free fraction (fraction unbound) in data set [2] was 0.017. Also, the “Comparative ligand internalization by fluorescence microscopy” value in data set [3] is “highly efficient and identical ligand internalization”. For the same molecule, in the data set with LNCaP xenografts, the “Intraoperative and ex vivo fluorescence detection of tumor xenograft” value was “sensitive in vivo detection of the PSMA-I&F–positive tumor xenograft with good contrast to the surrounding tissue”.

For `CN1/C(=C/C=C/C=C/C2=[N+](CCCCCC(=O)O)c3ccc(S(=O)(=O)[O-])cc3C2(C)C)C(C)(C)c2cc(S(=O)(=O)O)ccc21` [Sulfo-Cy5], the brightness in data set [4] is 51 × 10^3 M^−1⋅cm^−1.

Consider IRDye800CW-^68Ga-HBED-CC-KuE, for which, in the data set with LNCaP tumors, the tumor-to-blood ratio was 4.5, the tumor-to-intestines ratio is 5.7, the tumor-to-liver ratio is 4.9 and the tumor-to-muscle ratio is on record as 4.8.

As for ^111In-DOTA-Lys(Nε-IRDye800CW)-Sub-KuE, in data set [5], the “Increase of tracer uptake in the excretion organs and the tumor xenograft (PC-3 PIP) compared with parent compound” value is listed as 2-4 factor; the tumor-to-blood ratio is 1.4; the tumor-to-intestines ratio is on record as 7.7; the tumor-to-liver ratio is 5.8. For the same molecule, the tumor-to-muscle ratio in data set [5] is 11.6.
